Biological target: Biotinylated Human CD39-His
Experiment: MSD equilibrium; Fab

- Kd: 0.053 nM
Substance: SRF399-C

Reference: patent US20210363268A1
